According to PMC8319299:
pKd: −log10 of the molar value.

Legend:
[1] = target: EED (amino acids 40-441) (human) (UniProt O75530); test: fluorescence polarisation; fluorescence anisotropy displacement titration: 2-fold serial dilutions of unlabelled peptide with 10 µM EED and 40 nM 5-FAM labelled JARID2-K116me3 peptide; same buffer, 30 °C; Kd of the unlabelled peptide from a fit
[2] = tested on: PRC2 core (EZH2-EED-SUZ12-RBBP4) (Homo sapiens), Q15910-2+O75530+Q15022+Q09028; test: EMSA; details: 50 mM Tris-HCl pH 7.5 (25 C), 100 mM KCl, 2 mM 2-mercaptoethanol, 0.1 mg/mL BSA, 0.05% NP-40; FA at 30 C; nucleosome EMSA with 5% glycerol at 4 C (+5 ng/uL …)
Chain of PRC2 core (EZH2-EED-SUZ12-RBBP4) (Homo sapiens), Q15910-2+O75530+Q15022+Q09028 (Q15910 other isoform, or with tags, fused parts or gaps, chain 1 of 4): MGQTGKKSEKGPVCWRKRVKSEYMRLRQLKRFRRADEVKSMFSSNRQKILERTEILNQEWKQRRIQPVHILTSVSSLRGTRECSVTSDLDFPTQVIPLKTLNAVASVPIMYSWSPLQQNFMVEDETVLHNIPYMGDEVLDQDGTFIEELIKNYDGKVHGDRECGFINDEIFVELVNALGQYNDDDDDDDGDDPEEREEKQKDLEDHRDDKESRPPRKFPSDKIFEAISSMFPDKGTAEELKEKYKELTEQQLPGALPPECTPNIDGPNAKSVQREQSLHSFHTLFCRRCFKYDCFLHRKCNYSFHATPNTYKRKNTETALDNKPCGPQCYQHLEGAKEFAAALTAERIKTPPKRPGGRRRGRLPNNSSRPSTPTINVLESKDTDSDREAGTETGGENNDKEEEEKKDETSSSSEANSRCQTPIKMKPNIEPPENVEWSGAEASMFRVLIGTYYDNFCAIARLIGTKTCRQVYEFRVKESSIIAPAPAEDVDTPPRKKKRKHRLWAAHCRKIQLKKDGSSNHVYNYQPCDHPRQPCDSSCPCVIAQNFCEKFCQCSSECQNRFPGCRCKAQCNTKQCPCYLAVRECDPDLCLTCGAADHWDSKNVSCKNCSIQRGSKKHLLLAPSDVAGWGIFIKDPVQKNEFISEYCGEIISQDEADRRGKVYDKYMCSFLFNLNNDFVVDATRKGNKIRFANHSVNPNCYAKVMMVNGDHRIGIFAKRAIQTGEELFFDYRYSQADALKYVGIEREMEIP
Chain of PRC2 core (EZH2-EED-SUZ12-RBBP4) (Homo sapiens), Q15910-2+O75530+Q15022+Q09028 (O75530 whole entry, chain 2 of 4): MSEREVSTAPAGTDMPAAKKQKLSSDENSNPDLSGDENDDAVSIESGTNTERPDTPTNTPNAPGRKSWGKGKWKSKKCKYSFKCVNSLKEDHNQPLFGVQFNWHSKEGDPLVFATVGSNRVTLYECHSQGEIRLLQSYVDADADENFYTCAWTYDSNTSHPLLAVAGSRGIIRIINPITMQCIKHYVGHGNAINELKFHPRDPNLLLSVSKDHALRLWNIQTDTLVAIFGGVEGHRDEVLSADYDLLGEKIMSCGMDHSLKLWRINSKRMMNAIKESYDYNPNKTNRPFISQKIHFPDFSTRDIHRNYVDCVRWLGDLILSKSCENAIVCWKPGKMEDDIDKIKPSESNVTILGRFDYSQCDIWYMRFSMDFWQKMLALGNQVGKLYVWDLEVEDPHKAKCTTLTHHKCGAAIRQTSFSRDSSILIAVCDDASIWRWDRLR
Chain of PRC2 core (EZH2-EED-SUZ12-RBBP4) (Homo sapiens), Q15910-2+O75530+Q15022+Q09028 (Q15022 whole entry, chain 3 of 4): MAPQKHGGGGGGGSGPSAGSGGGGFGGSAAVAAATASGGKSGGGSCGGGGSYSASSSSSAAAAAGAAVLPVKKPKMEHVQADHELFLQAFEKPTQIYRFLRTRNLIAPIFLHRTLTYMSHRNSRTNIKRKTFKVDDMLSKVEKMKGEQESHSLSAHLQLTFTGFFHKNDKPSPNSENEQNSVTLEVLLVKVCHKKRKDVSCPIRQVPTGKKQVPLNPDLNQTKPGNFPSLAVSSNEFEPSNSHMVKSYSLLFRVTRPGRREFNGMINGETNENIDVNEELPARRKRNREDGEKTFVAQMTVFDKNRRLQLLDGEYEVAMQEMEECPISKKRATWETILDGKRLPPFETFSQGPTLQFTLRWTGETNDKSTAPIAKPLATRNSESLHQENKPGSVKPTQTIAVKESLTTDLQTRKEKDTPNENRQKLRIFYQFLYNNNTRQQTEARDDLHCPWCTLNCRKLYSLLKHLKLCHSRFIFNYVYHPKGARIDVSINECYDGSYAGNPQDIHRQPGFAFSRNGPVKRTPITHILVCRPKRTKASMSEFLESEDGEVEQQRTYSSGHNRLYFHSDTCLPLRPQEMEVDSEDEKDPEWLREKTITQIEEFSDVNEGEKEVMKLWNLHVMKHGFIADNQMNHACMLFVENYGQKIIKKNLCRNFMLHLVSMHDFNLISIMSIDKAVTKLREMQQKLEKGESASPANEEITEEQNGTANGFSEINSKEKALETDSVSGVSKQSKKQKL
Chain of PRC2 core (EZH2-EED-SUZ12-RBBP4) (Homo sapiens), Q15910-2+O75530+Q15022+Q09028 (Q09028 whole entry, chain 4 of 4): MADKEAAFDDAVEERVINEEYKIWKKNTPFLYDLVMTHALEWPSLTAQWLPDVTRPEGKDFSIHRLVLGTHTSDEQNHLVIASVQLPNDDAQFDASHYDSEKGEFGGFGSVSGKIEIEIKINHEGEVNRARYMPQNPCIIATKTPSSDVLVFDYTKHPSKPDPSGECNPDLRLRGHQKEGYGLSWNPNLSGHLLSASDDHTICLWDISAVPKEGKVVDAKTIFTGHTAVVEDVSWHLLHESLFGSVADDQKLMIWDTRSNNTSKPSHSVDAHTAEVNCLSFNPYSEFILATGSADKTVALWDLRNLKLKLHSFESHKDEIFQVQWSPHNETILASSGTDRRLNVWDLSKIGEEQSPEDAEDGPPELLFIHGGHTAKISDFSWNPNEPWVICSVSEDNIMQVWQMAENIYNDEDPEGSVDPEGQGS

[3] = tested on: PRC2-PALI1 PIR-long (Homo sapiens), Q15910-2+O75530+Q15022+Q09028+Q96JN0-3; test: EMSA; details: 50 mM Tris-HCl pH 7.5 (25 C), 100 mM KCl, 2 mM 2-mercaptoethanol, 0.1 mg/mL BSA, 0.05% NP-40; FA at 30 C; nucleosome EMSA with 5% glycerol at 4 C (+5 ng/uL …)
[4] = tested on: PRC2-PALI1 PIR (Homo sapiens), Q15910-2+O75530+Q15022+Q09028+Q96JN0-3; test: EMSA; details: 50 mM Tris-HCl pH 7.5 (25 C), 100 mM KCl, 2 mM 2-mercaptoethanol, 0.1 mg/mL BSA, 0.05% NP-40; FA at 30 C; nucleosome EMSA with 5% glycerol at 4 C (+5 ng/uL …)

Chain of EED (amino acids 40-441) (human) (O75530 40-441): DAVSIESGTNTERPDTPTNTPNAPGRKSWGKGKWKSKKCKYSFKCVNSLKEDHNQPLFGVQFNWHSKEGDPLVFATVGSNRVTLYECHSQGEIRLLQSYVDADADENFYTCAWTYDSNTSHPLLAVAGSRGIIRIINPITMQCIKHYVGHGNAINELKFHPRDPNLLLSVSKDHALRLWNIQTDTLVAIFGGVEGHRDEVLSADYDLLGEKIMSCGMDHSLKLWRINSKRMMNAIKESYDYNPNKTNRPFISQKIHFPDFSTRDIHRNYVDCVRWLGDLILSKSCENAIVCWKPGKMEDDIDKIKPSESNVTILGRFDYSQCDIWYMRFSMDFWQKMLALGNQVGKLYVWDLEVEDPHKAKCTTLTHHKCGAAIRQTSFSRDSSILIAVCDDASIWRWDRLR

Row | Substance | pKd [2] | pKd [4] | other results
1 | PALI1-K1214me3 peptide |  |  | fold lower affinity than PALI1-K1219me3 and PALI1-K1241me3 [1]: 4 fold
2 | PALI2-K1558me3 peptide |  |  | pKd [1]: 5.06
3 | ACCTCGCGAATGCATCTAGATGATATCGAGAATCCCGGTGCCGAGGCCGCTCAATTGGTCGTAGACAGCTCTAGCACCGCTTAAACGCACGTACGCGCTGTCCCCCGCGTTTTAACCGCCAAGGGGATTACTCCCTAGTCTCCAGGCACGTGTCAGATATATACATCCGATATCGGCGCCCT (double strand) [mononucleosome 182 bp, Cy5-DNA] | 6.48 |  | pKd [3]: 7.72
4 | CTGGAGAATCCCGGTGCCGAGGCCGCTCAATTGGTCGTAGACAGCTCTAGCACCGCTTAAACGCACGTACGCGCTGTCCCCCGCGTTTTAACCGCCAAGGGGATTACTCCCTAGTCTCCAGGCACGTGTCAGATATATACATCCTGT (double strand) [NCP147, H2A-Cy5] | 5.59 | 7.31 | 
5 | ACCTCGCGAATGCATCTAGATGATATCGAGAATCCCGGTGCCGAGGCCGCTCAATTGGTCGTAGACAGCTCTAGCACCGCTTAAACGCACGTACGCGCTGTCCCCCGCGTTTTAACCGCCAAGGGGATTACTCCCTAGTCTCCAGGCACGTGTCAGATATATACATCCGATATCGGCGCCCT (double strand) [NCP182, H2A-Cy5] | 5.85 | 7.77 | 
